Measurements published in the DeepSol protein solubility set.

experiment: soluble on expression in E. coli; label from the status in PepcDB or PDB records

Sequence | soluble on expression in E. coli
MDEEEEISVVQDMAYDYSGKRLATVSIDREICIWNKKDDWQRTYQWKAHEGPLFGVSWAHPCFGNILATGSYDKRVIIWEEPEASSSYSSSSMDKSTKGWTALAHLVDARDEVRQVQFAPPHLGLLLASGSADGYVRIYTCIDEADLHQWPLLTELDMDSPVVGMSWNPSVDSIPLIVVASHKDCRVWSMDNDTRRWTDWHLFRTSESDTADLSAVAWAPHVGRSFERIALGCEDGSILLFQFPRIQQGNKTNGHEMQPICRLNHGNERIVRLQWNMVGSILASSASDRMVRLWKALPQDGTRWNCFDVVHLNE | not soluble
GMTILSDVKALGQQIWLDNLSRSLVQSGELAQMLKQGVCGVTSNPAIFQKAFAGDALYADEVAALKRQNLSPKQRYETMAVADVRAACDVCLAEHESTGGKTGFVSLEVSPELAKDAQGTVEEARRLHAAIARKNAMIKVPATDAGIDALETLVSDGISVNLTLLFSRAQTLKAYAAYARGIAKRLAAGQSVAHIQVVASFFISRVDSALDATLPDRLKGKTAIALAKAAYQDWEQYFTAPEFAALEAQGANRVQLLWASTGVKNPAYPDTLYVDSLIGVHTVNTVPDATLKAFIDHGTAKATLTESADEARARLAEIAALGIDVETLAARLQEDGLKQFEEAFEKLLAPLV | soluble
QAFVSAQTSTIPKTAFTAHDFVDYTLPQEQKGKEQKEQQWMKNSQTKDTDVHPYADFAVLEILLFPDSSTDRKIFNHFIQPAIRAYKQLGDSLNIFANQTLDQPKHNRYYLLGYPFLRNKAASLFLNQTEQRKEHMDKTTQILHEKPFVVLTDPAKPTLIRNKGANFTGNTWTSNYDL | not soluble
MRGRAVSRNAIIGIVHRNAKLAAIGFGRAKSSPASEGSSTYTPEEIKLVADCLKAKRNYVQIAQRLALKSGRIISRFGVKSLIRRTPELNEIGFRGKKGRPSDKKKAAPGQLPGRLFIAATADIDRDPSAFDYLTRPAVRALASQPHFAAMRFVDCLPARCRAPLSYDLEERPGPDMLCCGHLAMPSRSYCAYHEIRLTARKAEFIAEAALEHHHHHH | not soluble
MGIDYNRWWHLKDETLGEELKGYIKMIEEDYLVYSGTTSQLHVSKLSNGSVNSIVNEILEQQGSWSIIYYNQKLKKLFIGRDVFGRQSLVFNFESMIFGCRTKPETSGKWIEIPFGQVTVFSLDSTDPVIYSYLDEYPENVLDGYFSGSDISRIVVNKKHGLLNVSRSTGGEIDSFNTKDLFQKVIDATKILLKNYHESHVAVCLSGGVDSTFVAHVVHSSVPENMQIDLINVAFGNSEKECEQAPDRKRARKALESFRTAYPTRQFRLILVNVDSQTLEVNRKESISDAAQPASSVLDDSLSCVLWFAVRAEGVDSENQQSVRSPATTCLLGSGADELLAGYARHRTRFEKEQIPENVAEECENELRRLGSRNGGRDARVAAQLGKTILSPLLEDTVVTWLNALPVDSKWDLSLPRGVGEKQLLRETVKMLGSPYDAPKQAMQFGSRMAKMSNAGDNSIKGSDKSPHLLKTDVN | not soluble
MEAIKDKERKERRDKKLAIANLAAKQKREKKKQQKNGAELAARARKAKAEKAKTSEPPAQGVVTRAAAQKAREAAQAANHQ | not soluble
MSGVRFPSGSLKDVRFFLHLFFSSKYGIIYVRYLDEEGTIMKQIIISVGREFGSGGHIVAQKLAEHYDIPIFNKELLEEMARKEGYSEKALEKYDEKPVNFGFMPLPYAGGNIPIEQEIAMKQFEFIKNKADAGESFVIVGRCADEILAYNPNLVSVFITGDRESKIARVMDREGLDRKQAINKMKRMDKIRKTYHNFYCRNKWGDSRGYDICINTGKTDFDTAKNMVVECVDKLKERSE | not soluble
MGSDKIHHHHHHMLTTPEMREQFRNDGVTIFRNCLNEAQLAQCYDGFKWDMANPGPHVYKGGLIGTTLHTHIDIANPEAKSELDDLAAALPFGQIFQELWDSKNVWYFAEEIFAKEGGKSGRGPWHQDTANLPWAGRHWGNAWISFQKLPKKNSLEIVRGSHLGIQYDGASFDSAEDPTDPLYGDGTYPRLPHIDNELARDPNSWDIVSFDINPGDIVLLHPRSLHGGAQVDADCPTRHTLVLRFFGDDATFRELPTCNPKYARNGPLFQKEMAKLNQGDAFRSPVFRQVAGV | not soluble
MEFNKLQLSHCISFYISDVSEVFFESINQHPSRDFVNNILQKIKSTLSEEELEKLNTIEEVTKDEKILIMLNHVLKKIVSKTGSSSCDLFQIVKHDRFNEPVYIQSVNAFENNLINNEFAERRYDYLIEINKHSYLRKYVNAIRISFFLDLRAQILSGSFTLDVINKQLEHQNKEELFQAIYLRSLIKHFISNQLYPISLNSFIFGDKNRENKTVENDKLSVLKNNWNQIFFSKYFDFVAKNKEERVVDNNCD | not soluble
METASKRPKSGAAKKPAAAKARGDGPSYLDGQLLIAMPVMEDERFARSVIYICAHSSEGAMGIIVNRPAGSIDFPELLVQLDIVEKPEQIKLPDHAESMKVLRGGPVETGRGFVLHSSDFFIKDATLPIDDGICLTATVDILKAIAGGTGPKHAILALGYAGWAPGQLENEIQENGWLHCDADADLIFGDDIEEKYDRALHKLGIEPGMLSAEAGHALEHHHHHH | soluble
MKTIKDWQINICLATYNGQKYLRQQLDSIIQQGYTDWICLIRDDGSTDDTVAIIKEYVNRDSRFIFINSNDDRKLGSHRSFYELVNYKKADFYVFSDQDDVWKENRLERYLEEAEKFNQELPLLVYSNWTSVDEKLTVLKEHNPATVIQEQIAFNQINGMVIMMNHELAKLWEYRQIGAHDSYVGTLAYAVGNVAYISDSTVLWRRQVGAESLNNYGRQYGVATFWQMINTSFDRASLIFAQVSDKMSLERKLFFSRFIELKNANLMRRIYLLSKLKLRRKSLKETVAMTILLLTGYGKPKALEHHHHHH | soluble
MTDLHPVKEETFNITAMNNIDPKGFHRDVDTYSETEFGLYMARGANHPRFGYLESWLLPEINLRANIFHFRDGIDEHQDFYFDIAEISHDGHTWHTRDLYVDLISVVGEPVRVDDTDELAAATSAGLITAEDAEKAIDATLLAVDGITRHNDDPMAWLAAMGYPLTWAKNITLKEAE | soluble
MAQLQKDAQENECRELIEVPSGHDYQIRQYIEKYPQFLWKYSEGVTIPGYVLNIAEQLNSEYGNVENIPIDLYPCEYYRIVEHSMPTDIGLQPKRFDRIKENLTEKLQQVFRHQDADLYMPENHLIPTVACAVCIQGTWYRGKIENVPPRGIWMYVNLIDAGMSRQVMKSDVRRLPLAFGHYPPMVVKATIRGAVIHRMDRGKVDQFQNMIRNIDYLARCQITTCTEPFQIVLCHPKYEFMNMCSFLLAPRRGQPSQEGVWIPREIAKQLERENGFERNDYDDSGADSDFLEDEEEEDAGWDYGEGDDYAYLRSFPPACKIFRMSEDEFMVERIENERIIYLTSKDMLERRREAEEYLTKEKESLESLPDVWMAYGTSCSVFHQGTMKRASCCGEEGSTIQLLLIDYGISIEVSKSDVYNIPNKDEVNMEPFVTLVSIKSFPFIHYSRVKILQELLPRGTPVKFHRDRKCKEIPTKGEIYQMNGTSVEQSVSEIVSSCQLDLECNSLLPSRIANNELTQLLAYCINYEFMYKSPNVVIYKKSKRVKSHF | not soluble
MKIVLIGAGNVATHLGIALQKAGCLILQVYSRTEESASALAARLSVDYTIVPDEIRRDADLYIVALKDAVLRQLAPVLVKGREQALFVHTAGSMSMDLWKGLVKRYGVLYPMQTFSKQREVDFNTVPFFIEASAPAEVELLRMVAVRLSPKVYEVTSGQRRYLHLAAVFACNFANHMYALSSHILEKQGIPFEVMLPLIDETAGKVHELSPTQAQTGPAVRYDENVISKHLEMLADEESLQELYEKISKSIHNLPLSVIQANKEGKNS | not soluble
MDTIQKRPRTRLSPEKRKEQLLDIAIEVFSQRGIGRGGHADIAEIAQVSVATVFNYFPTREDLVDDVLNKVENEFHQFINNSISLDLDVRSNLNTLLLNIIDSVQTGNKWIKVWFEWSTSTRDEVWPLFLSTHSNTNQVIKTMFEEGIERNEVCNDHTPENLTKMLHGICYSVFIQANRNSSSEEMEETANCFLNMLCIYK | not soluble
MGSDKIHHHHHHLNTDPSTAVPSDDAIKNIDDAQVALNGIYRLASAHSYYGDNYLYYADCRGEDVQARINKGAGRRVSPYYFFDVTADDNFNITLVWNQPYKVIHQANSLIEKLDAGNAGNARPEEVARIKSEALAMRGLALFDLTRLFGMPYTLDNGASLGVPIEIQTTLEDHAPERNTVAQCYEQVLKDLNDALGGLTKEKHDAYMNYWSVKALLSRVYLYMNDNENALKCAEEVINDNGGIYRLFTHDEYPSVWGKDFNSESLFEFYFTMSEPSGGSGGEGAPMVYADNVKDWNNLILTKAYLDLLNEDPEDVRHVFPHLPENAVADTLPVAAKGQPKYLIKYPGKSGSVTDAVSTVNPQDNDLCILRLSEVYLNAAEAAFKIGNTEKALTYLNAIVTRANPAKSVTSADLSLERILKERRKELVGEGHAFFDYMRNGKSVDRSGGWHLTMPEDARVIAPSDPRVALPIPQTEIDANPNIVQNPR | not soluble
MKKLSGIIVLLLAGAALYLALKTSPIDPLAWDAPAAPQMTGVLEPNDTLMKAELLGQGQLHGPEDTAVDSQGRVYAGLADGRVVRLDASGKVETFVDTGGRPLGMDFDAAGNLILADAWKGLLRIDPQGKVETLATEADSVPFAFTDDLDIASDGRIYFSDASSKFHQPDYILDLLEARPHGRLLRYDPSTGKTEVLLKDLYFANGVALSANEDFVLVNETYRYRITRYWLKGEKAGQHEVFIDNLPGLPDNLQGDRKGTFWVALPTPRKADADFLHRHPWLKAQLAKLPRMFLPKPTAYGLVIAIDEQGRIVRSLHDTSGHHLRMITSAKPVGDQLYFGSLENDRIGRLAIPLEHHHHHH | soluble
MASSGDYDEIIKSISDAPPTHYMVKIESFSLLTKHAIERYETESFEAGGYKWKLVLYPNGNKSKNTKDHVSVYLSLADSSSLSPGWEVYAVFRLYLLDQNKDNYLILQGNERRFHSVKREWGFDKFIPTGTFSDASNGYLMEDTCMFGADVFVSKERRSGRGECLSMIKDATSSKHVWKIENFSKLDKESYDSNAFFAGDRKWKIEFYPTGTKQGTGTHLSIYLTLVDPETISDGTKIFVEFTIRIFDQLQGRHIAGKVTKWFSRSSSEHGWVKYVSMVYFTQPNSGLLLKDVCLVEADVCVHGITSAI | soluble
MNVRVLVVEDERDLADLITEALKKEMFTVDVCYDGEEGMYMALNEPFDVVILDIMLPVHDGWEILKSMRESGVNTPVLMLTALSDVEYRVKGLNMGADDYLPKPFDLRELIARVRALIRRKSESKSTKLVCGDLILDTATKKAYRGSKEIDLTKKEYQILEYLVMNKNRVVTKEELQEHLWSFDDEVFSDVLRSHIKNLRKKVDKGFKKKIIHTVRGIGYVARDE | soluble
MGSDKIHHHHHHMIDSMTHRKLSNTAQRPSPTRPRHGANATWRMLSVSALMLAMASTATWASDVKSQQTQAADIARNMANNTDTCYVEGVSDRLNCGFVTVPENPNKPDGKQIQVHYVVLPAVKNVNHEEALLAIAGGPGQSAIDNAAGFDAMLSKVRQQRDILLIDQRGTGRSNLLTCDEGAQSPLSFDDDNADTLAETQKCLAKIDADVTQYGSLNAIKDFEAVRQHLGYKKLHIYGISYGTRMAQLYMRLYPAHLATVTLDGIVPMQQSVLEIGASIDRGFDLLFKDCQETTACHAQFPELKAEFDQVAASLAKAPVMENVYDPVTGEKTMLTMTRGKFYGSIRMALYQANVRALVPHAIHQAAKHNFQPILGLYSLTTDNAGMAMGMHASVVCGEDMPRITPAMREQAQHSFMGKTMLEGLEATCEVWKVPAVDDSFSEPISSDIPTLLLSGEIDPATPPSWGELAMEKLTNAKHFVAPYATHGVAYQSCANNLIADLVRSGSVKDLDGECLKKDVRRSFYLNASSVEPLDATSTKTTDDNASTGAKE | not soluble
